Reference: IntAct's records for PubMed 25982527

B1: Mitogen-activated protein kinase kinase kinase 3 (Homo sapiens), Q99759 (parent)
chain: MDEQEALNSIMNDLVALQMNRRHRMPGYETMKNKDTGHSNRQSDVRIKFEHNGERRIIAFSRPVKYEDVEHKVTTVFGQPLDLHYMNNELSILLKNQDDLDKAIDILDRSSSMKSLRILLLSQDRNHNSSSPHSGVSRQVRIKASQSAGDINTIYQPPEPRSRHLSVSSQNPGRSSPPPGYVPERQQHIARQGSYTSINSEGEFIPETSEQCMLDPLSSAENSLSGSCQSLDRSADSPSFRKSRMSRAQSFPDNRQEYSDRETQLYDKGVKGGTYPRRYHVSVHHKDYSDGRRTFPRIRRHQGNLFTLVPSSRSLSTNGENMGLAVQYLDPRGRLRSADSENALSVQERNVPTKSPSAPINWRRGKLLGQGAFGRVYLCYDVDTGRELASKQVQFDPDSPETSKEVSALECEIQLLKNLQHERIVQYYGCLRDRAEKTLTIFMEYMPGGSVKDQLKAYGALTESVTRKYTRQILEGMSYLHSNMIVHRDIKGANILRDSAGNVKLGDFGASKRLQTICMSGTGMRSVTGTPYWMSPEVISGEGYGRKADVWSLGCTVVEMLTEKPPWAEYEAMAAIFKIATQPTNPQLPSHISEHGRDFLRRIFVEARQRPSAEELLTHHFAQLMY

Variants of: B1
Details: with CCM2, Q9BSQ5-1
Sequence of CCM2, Q9BSQ5-1 (Q9BSQ5 whole entry): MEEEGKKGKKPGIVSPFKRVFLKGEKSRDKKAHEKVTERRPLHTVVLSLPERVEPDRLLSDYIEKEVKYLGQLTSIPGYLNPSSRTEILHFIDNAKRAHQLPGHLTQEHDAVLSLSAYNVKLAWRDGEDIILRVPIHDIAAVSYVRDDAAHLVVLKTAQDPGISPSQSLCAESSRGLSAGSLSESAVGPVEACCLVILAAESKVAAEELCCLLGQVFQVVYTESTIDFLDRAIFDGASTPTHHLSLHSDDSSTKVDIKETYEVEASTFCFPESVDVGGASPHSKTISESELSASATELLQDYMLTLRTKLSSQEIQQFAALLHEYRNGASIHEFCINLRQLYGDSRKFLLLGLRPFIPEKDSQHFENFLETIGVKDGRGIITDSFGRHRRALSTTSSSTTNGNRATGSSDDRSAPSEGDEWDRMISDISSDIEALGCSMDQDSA

Effect of a mutation on the interaction, disrupting interaction strength:
L7D
I10D
L17D
L14D
